± gives the standard error. For some assays here: Fewer inactive variants are shown than the library holds.
B1: glmS ribozyme (parent)
chain: AUAAAAGCGCCAGAACUACAGAAAUGUAGUUGACGAGGAGGAGGUUUAUCGAAUUUUCGGCGGAUGCCUCCAAA

Columns and labels:
Details in all cases: with glucosamine-6-phosphate
[1] = variants of: B1; assay: self-cleavage kobs at 40 uM GlcN6P; higher = faster cleavage; RNA array
Method in brief: (§1)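 Glucosamine-6-phosphate (40 μM to 10 mM) in HEPES/KCl/Mg(OAc)2 buffer was flowed over sequenced MiSeq chips, and tiles were imaged over ~14 h. Barcoded ribozyme variants there had been transcribed in situ by E. coli RNA polymerase and were tracked through a hybridised Cy3 probe at 37 °C. One- or two-exponential decay fits to per-tile medians, normalised to baseline and to non-cleaving reference variants, gave kobs. kcat and KM came from weighted Michaelis–Menten fits across concentrations.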

[2] = variants of: B1; assay: self-cleavage kobs at 640 uM GlcN6P; higher = faster cleavage; RNA array
Method in brief: as §1

[3] = variants of: B1; assay: self-cleavage kobs at 160 uM GlcN6P; higher = faster cleavage; RNA array
Method in brief: as §1

[4] = variants of: B1; assay: self-cleavage kobs at 10000 uM GlcN6P; higher = faster cleavage; RNA array
Method in brief: as §1

[5] = variants of: B1; assay: self-cleavage kobs at 2500 uM GlcN6P; higher = faster cleavage; RNA array
Method in brief: as §1

[6] = variants of: B1; assay: KM; higher = weaker cofactor use; RNA array
Method in brief: as §1

Variant	self-cleavage kobs at 40 uM GlcN6P [1] [s⁻¹]	self-cleavage kobs at 640 uM GlcN6P [2] [s⁻¹]	self-cleavage kobs at 160 uM GlcN6P [3] [s⁻¹]	self-cleavage kobs at 10000 uM GlcN6P [4] [s⁻¹]	self-cleavage kobs at 2500 uM GlcN6P [5] [s⁻¹]	KM [6] [µM]
A6U G40U U56A	< 1e-05	< 1e-05	–	–	–	–
A14C A52C	< 1e-05	< 1e-05	< 1e-05	< 1e-05	–	–
U54G C71U	0.00109 ± 0.00015	0.00857 ± 0.00098	0.00194 ± 0.00038	0.0636 ± 0.013	0.0283 ± 0.0078	–
G38U G40C	< 1e-05	< 1e-05	–	< 1e-05	< 1e-05	–
G44A G59C C71U	< 1e-05	–	–	< 1e-05	–	–
U46A U57A	< 1e-05	–	< 1e-05	–	–	–
C50G C68G	0.00159 ± 0.00078	0.000121 ± 1.1e-05	–	6.8e-05 ± 4.8e-06	0.000142 ± 1.2e-05	–
U47C G62A	< 1e-05	–	–	< 1e-05	–	–
A53U U65A	4.97e-05 ± 1.8e-05	–	7.52e-05 ± 2.1e-05	0.00253 ± 0.00061	0.00238 ± 0.00058	–
A15C C16U U57A G66C	< 1e-05	–	–	< 1e-05	–	–
A36G U47C	< 1e-05	–	–	< 1e-05	–	–
G37C G40U	–	–	–	–	–	5820 ± 2300
A42C U46G	< 1e-05	–	< 1e-05	–	–	–
C8G A14C	< 1e-05	< 1e-05	< 1e-05	< 1e-05	< 1e-05	–
C8A U30A	< 1e-05	–	< 1e-05	< 1e-05	< 1e-05	–
A64U C71A	< 1e-05	–	–	3.22e-05 ± 1.4e-05	–	–
G40A A53C G62U	< 1e-05	–	–	< 1e-05	–	–
G9A C10G G32U A48G	< 1e-05	–	–	–	–	–
A15G U54A	0.000663 ± 0.00011	0.006 ± 0.0015	0.00251 ± 0.00049	0.0333 ± 0.014	0.00683 ± 0.0018	508 ± 200
A15U C16A G60U	< 1e-05	–	–	< 1e-05	–	–
A33U G44U	< 1e-05	< 1e-05	< 1e-05	< 1e-05	–	–
A48U G63A	< 1e-05	< 1e-05	–	< 1e-05	< 1e-05	–
C11U G38U A52U	< 1e-05	< 1e-05	< 1e-05	< 1e-05	–	–
A33G U56G	< 1e-05	< 1e-05	–	< 1e-05	–	–

Variant	self-cleavage kobs at 40 uM GlcN6P [1] [s⁻¹]	self-cleavage kobs at 640 uM GlcN6P [2] [s⁻¹]	self-cleavage kobs at 160 uM GlcN6P [3] [s⁻¹]	self-cleavage kobs at 10000 uM GlcN6P [4] [s⁻¹]	self-cleavage kobs at 2500 uM GlcN6P [5] [s⁻¹]	KM [6] [µM]
G60U C71U	< 1e-05	< 1e-05	< 1e-05	< 1e-05	–	–
C16G U30G C50G	0.00013 ± 4.8e-05	6.59e-05 ± 3.2e-05	–	7.3e-05 ± 1.9e-05	0.000324 ± 5e-05	–
G51C G66U	< 1e-05	< 1e-05	–	< 1e-05	< 1e-05	–
U30C U49A	< 1e-05	< 1e-05	< 1e-05	–	–	–
U30G U49C A64C	< 1e-05	–	< 1e-05	< 1e-05	–	–
C16G A48C C50A C58U A64U	< 1e-05	–	–	< 1e-05	–	–
G9A C67U	< 1e-05	–	< 1e-05	–	< 1e-05	–
U45C G59U	< 1e-05	< 1e-05	< 1e-05	< 1e-05	–	–
G7A U57G C61A	< 1e-05	–	–	–	–	–
G13C G60C	< 1e-05	–	< 1e-05	< 1e-05	–	–
G37U G41U U56A G62A G63U	< 1e-05	–	–	–	–	–
A6G G44A	< 1e-05	< 1e-05	< 1e-05	< 1e-05	< 1e-05	–
U54A C68G C70U	8.05e-05 ± 2.2e-05	–	–	–	–	–
A42U G59A	–	–	–	–	–	145 ± 23
A12U U56A	0.00122 ± 0.00016	0.0157 ± 0.0027	0.0024 ± 0.00059	0.0626 ± 0.016	0.04 ± 0.012	–
G13C A48U	< 1e-05	–	–	< 1e-05	< 1e-05	–
C16A G38C	< 1e-05	< 1e-05	< 1e-05	< 1e-05	–	–
G32C A48C G60C	< 1e-05	–	–	–	–	–
C11G U31G	< 1e-05	< 1e-05	–	–	–	–
C10U A64U	< 1e-05	< 1e-05	< 1e-05	< 1e-05	< 1e-05	–
A14U G63A	< 1e-05	< 1e-05	–	–	–	–
A14C G32A A52U	< 1e-05	–	–	9.78e-05 ± 1.9e-05	5.9e-05 ± 2.1e-05	–
A6C A15U G40A	< 1e-05	–	–	< 1e-05	< 1e-05	–
G43C U47G	< 1e-05	< 1e-05	–	< 1e-05	–	–

Variant	self-cleavage kobs at 40 uM GlcN6P [1] [s⁻¹]	self-cleavage kobs at 640 uM GlcN6P [2] [s⁻¹]	self-cleavage kobs at 160 uM GlcN6P [3] [s⁻¹]	self-cleavage kobs at 10000 uM GlcN6P [4] [s⁻¹]	self-cleavage kobs at 2500 uM GlcN6P [5] [s⁻¹]	KM [6] [µM]
G40C	0.000161 ± 2.8e-06	0.00123 ± 3.8e-05	0.000388 ± 1.8e-05	–	0.00453 ± 0.0002	–
A33G G35A U47A C67U C70G	5.2e-05 ± 2.3e-05	–	–	6.3e-05 ± 1.7e-05	–	–
C11U A42C C67G C71A	< 1e-05	–	–	< 1e-05	–	–
A15G A48U U55C	< 1e-05	–	–	0.000412 ± 8.4e-05	–	–
U47A A64G	0.000468 ± 8.5e-05	0.00552 ± 0.0012	0.00141 ± 0.00037	0.0238 ± 0.0074	0.00614 ± 0.0013	787 ± 380
A36G G44U	< 1e-05	< 1e-05	< 1e-05	< 1e-05	–	–
A6C G29A G40A G44U	< 1e-05	–	–	< 1e-05	–	–
C10G C50U U54G U56G	< 1e-05	–	–	< 1e-05	–	–
A12G C50G C58U	0.000139 ± 4.9e-05	–	–	3.85e-05 ± 1.8e-05	–	–
A14U G43A U55A C61A	< 1e-05	–	–	< 1e-05	–	–
G32U G40C C61U C67A	< 1e-05	–	–	–	–	–
G7C A12G	< 1e-05	–	–	< 1e-05	< 1e-05	–
A33U U65G C71U	< 1e-05	–	–	–	–	–
A52G U57A G66U	< 1e-05	–	–	3.15e-05 ± 1.6e-05	–	–
C10U G21U G59C	< 1e-05	< 1e-05	–	–	< 1e-05	–
A39U A52C	–	–	–	–	–	2300 ± 420
G38C A39U	< 1e-05	< 1e-05	–	–	–	–
G7C G9U	< 1e-05	< 1e-05	–	< 1e-05	–	–
A5U A6C A12G G32A G51U	< 1e-05	–	–	< 1e-05	–	–
G60U U65G	< 1e-05	< 1e-05	–	< 1e-05	< 1e-05	–
G44A A52U	< 1e-05	< 1e-05	< 1e-05	–	–	–
U56G C67U	0.000109 ± 1.2e-05	0.00135 ± 0.00015	0.000258 ± 4.6e-05	0.00538 ± 0.00085	0.00142 ± 0.00022	–
C34U U55G	< 1e-05	< 1e-05	< 1e-05	–	–	–
C34U A36C C58A	< 1e-05	–	–	–	–	–

Variant	self-cleavage kobs at 40 uM GlcN6P [1] [s⁻¹]	self-cleavage kobs at 640 uM GlcN6P [2] [s⁻¹]	self-cleavage kobs at 160 uM GlcN6P [3] [s⁻¹]	self-cleavage kobs at 10000 uM GlcN6P [4] [s⁻¹]	self-cleavage kobs at 2500 uM GlcN6P [5] [s⁻¹]	KM [6] [µM]
C34G G38U G40C C68A	< 1e-05	–	–	< 1e-05	–	–
C11A A33U	–	–	–	–	–	983 ± 40
C10U G63U A64U	< 1e-05	–	–	–	–	–
G38U A39U G60C C68A	< 1e-05	–	–	–	< 1e-05	–
G7A C16A	–	–	–	–	–	275 ± 120
G13C U65G	< 1e-05	< 1e-05	< 1e-05	–	< 1e-05	–
G40C C67G C71U	< 1e-05	–	–	–	–	–
G38U A39G G43U G44C	< 1e-05	–	–	< 1e-05	–	–
G29U G32C C61G	< 1e-05	–	–	< 1e-05	–	–
G29U G51U	–	–	–	–	–	40.3 ± 12
A14C G35U G43C	< 1e-05	–	–	–	–	–
A6G U31A G32U	< 1e-05	< 1e-05	< 1e-05	< 1e-05	< 1e-05	–
C16G U56A C71U	0.000174 ± 5.5e-05	–	–	–	–	–
U54A C61A	–	–	–	–	–	864 ± 400
C10U A33U G35A	< 1e-05	–	–	< 1e-05	–	–
A42C U65G	< 1e-05	< 1e-05	< 1e-05	–	–	–
G35C C68A	< 1e-05	< 1e-05	< 1e-05	< 1e-05	< 1e-05	–
C16U A53U	0.00056 ± 5.9e-05	0.00552 ± 0.00076	0.000815 ± 0.00015	0.0301 ± 0.0055	0.00594 ± 0.0012	–
G44A C70U	< 1e-05	–	< 1e-05	–	–	–
A14U A52C	< 1e-05	–	< 1e-05	–	–	–
U56C G62A	–	–	–	–	–	135 ± 63
G9C C10A A52C C61U	< 1e-05	–	–	< 1e-05	–	–
U54C C70A	3e-05 ± 1.2e-05	0.000124 ± 2.4e-05	5.86e-05 ± 2.8e-05	0.000206 ± 2.9e-05	0.000512 ± 0.00011	–

— the supplement of paper PMC7125110
